The subject of this series is Swi6-Y (Swi6-T278Y) (Schizosaccharomyces pombe). The series is described as follows: EMSA. The conditions noted are these: 20 mM Hepes pH 7.5, 4 mM Tris, 80 mM KCl, 0.1% Igepal CA-630, 0.2 mM EDTA, 2 mM DTT, 10% glycerol, 10 nM mononucleosome, 30 °C 45 min, 6% acrylamide 0.5x TBE …. In general terms: In EMSA bound probe runs differently from free probe, usually more slowly.

As to H3K9me0 mononucleosome, the binding signal (fold weaker than H3K9me3) (H3K9me0 histone, unmodified H3 (H3K9me0)) was 2.3.
On to H3K9me3 mononucleosome, for which the K half (H3K9me3 histone, histone H3K9me3 (DNA unmodified)) was 39 nM.

(Values after paper PMC11272775, “Epigenetic memory is governed by an effector recruitment specificity toggle in Heterochromatin Protein 1” (Nature Communications, 2024).)
